Experimental data reported in FireProtDB (doi:10.1021/bi010636i).
Where “and” joins values, the source holds several entries; their conditions need not be identical. Identical values can stand only once.

Details: pH 7, CD, transition: 2, reversible: yes, whole UniProt chain shown; for denaturant midpoint (higher = more stable): 25 °C, GdnHCl; for Tm: Thermal
[1] = Rattus norvegicus, potassium phosphate buffer

B1: Cytochrome b5 type B wild type, P04166 (protein)
chain: MATPEASGSGRNGQGSDPAVTYYRLEEVAKRNTAEETWMVIHGRVYDITRFLSEHPGGEEVLLEQAGADATESFEDVGHSPDAREMLKQYYIGDVHPNDLKPKDGDKDPSKNNSCQSSWAYWIVPIVGAILIGFLYRHFWADSKSS
With B1 the “denaturant midpoint (higher = more stable)” value [1] was 4.09 M and 4.03 M and the Tm [1] was 87 °C.

B2: Cytochrome b5 wild type, P00171 (protein)
chain: MAEESSKAVKYYTLEEIQKHNNSKSTWLILHYKVYDLTKFLEEHPGGEEVLREQAGGDATENFEDVGHSTDARELSKTFIIGELHPDDRSKITKPSESIITTIDSNPSWWTNWLIPAISALFVALIYHLYTSEN
With B2 the “denaturant midpoint (higher = more stable)” value (Bos taurus, MOPS buffer) was 2.99 M and 3.05 M and the Tm (Bos taurus, MOPS buffer) was 73.1 °C.
